Residue numbers refer to the chain shown, from its start.
T1: Recombinant NT antigen (N-terminal pro-brain natriuretic peptide, NT-proBNP) (human, UniProt P16860 27-102)
T1 construct: domain: N-terminal pro-brain natriuretic peptide (NT-proBNP); also called recombinant NT protein; N-terminal pro-B-type natriuretic peptide
T1 sequence (looked up): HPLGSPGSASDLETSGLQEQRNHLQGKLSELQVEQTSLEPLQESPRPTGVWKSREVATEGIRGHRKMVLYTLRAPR

B1: Mutation 1-35 (antibody)
heavy: QVRLQESGPSQVKPAQTLSLTCAISGFSVTTYYVDWVRHTPGKPPEWLAQMTKDGNAVHQPTIRSRLSITRDTSKSQVFLKLTGVTTEDTAVYYCVRGVIDFGPGLLVTVSSASTTPPKVYPLTSCCGDTSSSIVTLGCLVSSYMPEPVTVTWNSGALTSGVHTFPAILQSSGLYSLSSVVTVPASTSGAQTFICNVAHPASSTKVDKRVEPGCPDPCKHCRCPPPELPGGPSVFIFPPKPKDTLTISGTPEVTCVVVDVGQDDPEVQFSWFVDNVEVRTARTKPREEQFNSTFRVVSALPIQHQDWTGGKEFKCKVHNEGLPAPIVRTISRTKGQAREPQVYVLAPPQEELSKSTLSVTCLVTGFYPDYIAVEWQKNGQPESEDKYGTTTSQLDADGSYFLYSRLRVDKNSWQEGDTYACVVMHEALHNHYTQKSISKPPGK
light: QAVLTQPSSVSRSLGQTVSITCSGSSDQVGFGDYVNWFQLIPGSAPKTLIFGAYSRVRGVPDRFSGSRSGNTATLTINSLQAEDEADYYCGSPNSRGGYVFGSGTRLTVLSQPKSAPSVTLFPPSKEELDTNKATVVCLISDFYPGSVNVVWKADGSTINQNVKTTQASKQSNSKYAASSYLTLTGSEWKSKSSYTCEVTHEGSTVTKTVKPSECS
B2: Mutation 1-53 (antibody)
heavy: B1 heavy with Q60N, I63V
light: QAVLTQPSSVSRSLGQTVSITCSGSSDNVGFGDYINWFQLIPGSAPKTLIFGAYSRVRGVPDRFSGSRSGNTATLTINSLQAEDEADYYCGSGNSRNYVFGSGTRLTVLSQPKSAPSVTLFPPSKEELDTNKATVVCLISDFYPGSVNVVWKADGSTINQNVKTTQASKQSNSKYAASSYLTLTGSEWKSKSSYTCEVTHEGSTVTKTVKPSECS
B3: Mutation 1-43 (antibody)
heavy: B1 heavy with V34L, I63V, V99I
light: B1 light with Q28N, V35L, Y54S, V57L, P93A
B4: Mutation 1-47 (antibody)
heavy: B1 heavy with V29I
light: B2 light with N28Q, I35V, Y54S, G93P
B5: Mutation 1-45 (antibody)
heavy: B1 heavy with V29I, V34I, I63L, V99L
light: B1 light with V35I, Y54S, V57I
B6: Mutation 1-30 (antibody, V domains shown)
VH: QVRLQESGPSQVKPAQTLSLTCAISGFSLTTYYIDWVRHTPGKPPEWLAQMTKDGNAVHNPTVRSRLSITRDTSKSQVFLKLTGVTTEDTAVYYCVRGIIDWGPGLLVTVSS
VL: QAVLTQPSSVSRSLGQTVSITCSGSSDNVGFGDYINWFQLIPGSAPKTLIFGATSRIRGVPDRFSGSRSGNTATLTINSLQAEDEADYYCGSPNSRNYVFGSGTRLTVLS
B7: Mutation 1-48 (antibody, V domains shown)
VH: B6 VH with N60Q, V63I
VL: QAVLTQPSSVSRSLGQTVSITCSGSSDQVGFGDYVNWFQLIPGSAPKTLIFGATSRIRGVPDRFSGSRSGNTATLTINSLQAEDEADYYCGSPNSRGGYVFGSGTRLTVLS
B8: Mutation 1-44 (antibody, V domains shown)
VH: B6 VH with L29V, I34V, V63L, I99L
VL: B6 VL with I35V, T54S, I57V, P93A
B9: Mutation 1-40 (antibody, V domains shown)
VH: B6 VH with I34L, N60Q, I99V
VL: B6 VL with I35L, T54Y, I57L
B10: Mutation 1-41 (antibody, V domains shown)
VH: B6 VH with L29V
VL: B6 VL with T54Y, I57V, P93G
B11: Mutation 1-46 (antibody, V domains shown)
VH: B6 VH with L29I, I34L, V63I, I99V
VL: B7 VL with V35L, T54S, I57L
B12: Mutation 1-50 (antibody, V domains shown)
VH: B6 VH with I34V, N60Q, V63L, I99L
VL: B7 VL with V35I, I57V, P93A

molecular target: T1, Recombinant NT antigen (N-terminal …); experiment: indirect ELISA, KD calculated from half-max OD at 4 coating concentrations
Summary of the method: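 Plates coated overnight at 4 °C with recombinant NT antigen at 3, 1.5, 0.75 or 0.375 μg/ml, blocked with 20% BSA. Antibody, 2-fold dilutions from 1000 to 0.977 ng/ml, was incubated 30 min at 37 °C, then detected with HRP anti-IgG, OD450/630. KD was derived from half-max OD across coating levels.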

| Kd | Binder |
| --- | --- |
| 1.51 nM | B1 |
| 2.06 nM | B2 |
| 2.93 nM | B3 |
| 2.79 nM | B4 |
| 1.53 nM | B5 |
| 2.66 nM | B6 |
| 2.02 nM | B7 |
| 1.26 nM | B8 |
| 3.47 nM | B9 |
| 2.82 nM | B10 |
| 3.49 nM | B11 |
| 2.16 nM | B12 |
